Earlier results, collected in PMC5709052.
pKd: −log10 of the molar value. Read-outs that look alike come from different tables or passages of the source.

Tests used:
[1] = molecular target: CYP102A1 reductase domain (BMR) reductase domain (Priestia megaterium) (UniProt P14779)
[2] = molecular target: CYP102A1 reductase domain (BMR) reductase domain (Priestia megaterium) (UniProt P14779); assay: absorption spectroscopy titration
[3] = molecular target: CYP102A1 reductase domain (BMR) reductase domain (Priestia megaterium) (UniProt P14779); assay: absorption spectroscopy titration; remark: listed apart in the source
[4] = molecular target: CYP102A1 reductase domain (BMR) reductase domain (Priestia megaterium) (UniProt P14779); remark: listed apart in the source

Sequence of UniProt P14779 (P14779 473-1049): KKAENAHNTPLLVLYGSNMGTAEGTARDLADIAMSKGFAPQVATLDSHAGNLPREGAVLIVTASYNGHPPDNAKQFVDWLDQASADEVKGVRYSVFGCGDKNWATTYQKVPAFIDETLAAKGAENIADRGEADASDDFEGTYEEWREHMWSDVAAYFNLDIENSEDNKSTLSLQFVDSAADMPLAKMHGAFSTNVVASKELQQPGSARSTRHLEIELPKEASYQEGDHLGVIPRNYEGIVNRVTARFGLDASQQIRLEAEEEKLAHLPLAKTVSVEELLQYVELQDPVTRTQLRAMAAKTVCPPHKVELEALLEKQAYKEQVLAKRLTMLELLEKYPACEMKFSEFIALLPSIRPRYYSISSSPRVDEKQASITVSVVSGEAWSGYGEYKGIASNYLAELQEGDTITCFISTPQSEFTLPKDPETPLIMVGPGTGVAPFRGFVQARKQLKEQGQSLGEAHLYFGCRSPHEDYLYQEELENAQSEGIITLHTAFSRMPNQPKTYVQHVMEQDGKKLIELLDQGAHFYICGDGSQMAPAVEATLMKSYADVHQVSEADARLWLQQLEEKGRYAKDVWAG

Substance | pKd [1] | pKd [2] | pKd [3] | pKd [4]
CYP3A4 (from UniProt P08684) | 6.32 | 6.85 | 7.00 | 
CYP2B4 (from UniProt P00178) |  |  |  | 6.43
